Laboratory results as given in US20230331809A1 (Zymeworks, published 2023).
Residue numbers refer to the chain shown, from its start.

Legend:
[1] = target: T1, CDH3 (Cadherin 3) on JIMT1 cells (UniProt P22223 108-829, limits assumed); assay: flow cytometry on JIMT1 cells (CDH3), MFI
T1 construct: whole, on cells; also called P-cadherin

[2] = target: T1, CDH3 (Cadherin 3) on JIMT1 cells; assay: flow cytometry on JIMT1 cells (CDH3), MFI; reference sample
[3] = target: T2, Mesothelin (MSLN) on OVCAR3 cells (UniProt Q13421 296-598); assay: flow cytometry on OVCAR3 cells (MSLN), MFI; EC50 relative to v16417
T2 construct: whole, on cells

[4] = target: T2, Mesothelin (MSLN) on OVCAR3 cells; assay: flow cytometry on OVCAR3 cells (MSLN), MFI
[5] = target: T1, CDH3 (Cadherin 3) on JIMT1 cells; assay: flow cytometry on JIMT1 cells (CDH3), MFI; EC50 relative to v17214
[6] = target: T3, CD40 (Cluster of Differentiation 40) on cells (UniProt P25942 21-277, limits assumed); assay: cell-based or functional assay
[7] = target: T3, CD40 (Cluster of Differentiation 40) on …; assay: flow cytometry on Raji cells (CD40), MFI
[8] = target: T3, CD40 (Cluster of Differentiation 40) on …; assay: flow cytometry on Raji cells (CD40), MFI; sample treated with uPa; EC50 relative to v32477 -uPa
[9] = target: T3, CD40 (Cluster of Differentiation 40) on …; assay: flow cytometry on Raji cells (CD40), MFI; sample treated with uPa (variant has no cleavage site)
[10] = target: T3, CD40 (Cluster of Differentiation 40) on …; assay: flow cytometry on Raji cells (CD40), MFI; EC50 relative to v32477 -uPa
[11] = target: T4, PD-1 (Programmed Cell Death Protein 1) on cells (UniProt Q15116 25-288); assay: flow cytometry on PD-1 transfected CHO-S cells, MFI; * poor fit; uncleavable variant, sample treated with uPa
T4 construct: whole, on cells

[12] = target: T5, CD3 (Cluster of Differentiation 3) on Jurkat cells and on pan T cells (human, UniProt P07766 23-207); assay: cell-based or functional assay
[13] = target: T5, CD3 (Cluster of Differentiation 3) on …; assay: cell ELISA on Jurkat cells (CD3), OD450; uncleavable variant, sample treated with uPa
[14] = target: T4, PD-1 (Programmed Cell Death Protein 1) …; assay: flow cytometry on PD-1 transfected CHO-S cells, MFI; * poor fit
[15] = target: T5, CD3 (Cluster of Differentiation 3) on …; assay: cell ELISA on Jurkat cells (CD3), OD450
[16] = target: T5, CD3 (Cluster of Differentiation 3) on …; assay: flow cytometry on human pan T cells
[17] = target: T6, PD-L1 (Programmed death-ligand 1) on cells (UniProt Q9NZQ7 19-290); assay: flow cytometry on PD-L1 transfected CHO-S cells, MFI; * poor fit; uncleavable variant, sample treated with uPa
T6 construct: whole, on cells

[18] = target: T5, CD3 (Cluster of Differentiation 3) on …; assay: flow cytometry on pan T cells (CD3), MFI; sample treated with uPa (uncleavable linkers)
[19] = target: T6, PD-L1 (Programmed death-ligand 1) on …; assay: flow cytometry on PD-L1 transfected CHO-S cells, MFI; * poor fit
[20] = target: T5, CD3 (Cluster of Differentiation 3) on …; assay: cell ELISA on Jurkat cells (CD3), OD450; EC50 relative to v30421
[21] = target: T5, CD3 (Cluster of Differentiation 3) on …; assay: flow cytometry on pan T cells (CD3), MFI
[22] = target: T5, CD3 (Cluster of Differentiation 3) on …; assay: cell ELISA on Jurkat cells (CD3), OD450; EC50 relative to v30421; uncleavable variant, sample treated with uPa
[23] = target: T5, CD3 (Cluster of Differentiation 3) on …; assay: flow cytometry on pan T cells (CD3), MFI; sample treated with uPa; EC50 relative to v30421 -uPa
[24] = target: T4, PD-1 (Programmed Cell Death Protein 1) …; assay: flow cytometry on PD-1 transfected CHO-S cells, MFI; * poor fit; uncleavable variant, table and legend box disagree on the uPa treatment
[25] = target: T6, PD-L1 (Programmed death-ligand 1) on …; assay: cell-based or functional assay
[26] = target: T5, CD3 (Cluster of Differentiation 3) on …; assay: flow cytometry on pan T cells (CD3), MFI; remark: listed apart in the source
[27] = target: T5, CD3 (Cluster of Differentiation 3) on …; assay: flow cytometry on human pan T cells, separate experiment (FIG. 32)
[28] = target: T5, CD3 (Cluster of Differentiation 3) on …; assay: cell ELISA on Jurkat cells (CD3), OD450; remark: listed apart in the source
[29] = target: T5, CD3 (Cluster of Differentiation 3) on …; assay: cell ELISA on Jurkat cells (CD3), OD450; reference sample
[30] = target: T5, CD3 (Cluster of Differentiation 3) on …; assay: flow cytometry on pan T cells (CD3), MFI; sample treated with uPa (variant has no mask)

B1: Variant 17214: Unmasked aCDH3 mAb (antibody, human IgG1, lambda)
heavy: not shown
light: GQSALTQPASVSGSPGQSITISCTGTSNDVGAYNYVSWYQQHPGKAPKLMISEVNKRPSGVSNRFSGSKSGNTASLTISGLQAEDEADYYCSSFTSGLPWVVFGGGTKLTVLGQPKAAPSVTLFPPSSEELQANKATLVCLISDFYPGAVTVAWKADSSPVKAGVETTTPSKQSNNKYAASSYLSLTPEQWKSHRSYSCQVTHEGSTVEKTVAPTECS
- EC50 [1]: 0.36 nM
- Fold wrt WT [2]: 1 fold

B2: Variant 31729: HA PD-1:WT PD-L1 masked aMSLN Mab, PD-L1 cleavable (not treated with uPa) (antibody, human IgG1, kappa)
heavy: not shown
light: AFTVTVPKDLYVVEYGSNMTIECKFPVEKQLDLAALIVYWEMEDKNIIQFVHGEEDLKVQHSSYRQRARLLKDQLSLGNAALQITDVKLQDAGVYRCMISYGGADYKRITVKVNAEAAAKEAAAKMSGRSANADIQMTQSPSSLSASVGDRVTITCSASSSVSYMHWYQQKSGKAPKLLIYDTSKLASGVPSRFSGSGSGTDFTLTISSLQPEDFATYYCQQWSKHPLTFGQGTKLEIKRTVAAPSVFIFPPSDEQLKSGTASVVCLLNNFYPREAKVQWKVDNALQSGNSQESVTEQDSKDSTYSLSSTLTLSKADYEKHKVYACEVTHQGLSSPVTKSFNRGEC
- Fold wrt WT (EC50) [3]: 31 fold
- EC50 [4]: 74 nM

B3: Variant 28662: HA PD-1:WT PD-L1 masked aCDH3 Mab, uncleavable (antibody, human IgG1, lambda)
heavy: not shown
light: AFTVTVPKDLYVVEYGSNMTIECKFPVEKQLDLAALIVYWEMEDKNIIQFVHGEEDLKVQHSSYRQRARLLKDQLSLGNAALQITDVKLQDAGVYRCMISYGGADYKRITVKVNAEAAAKEAAAKQSALTQPASVSGSPGQSITISCTGTSNDVGAYNYVSWYQQHPGKAPKLMISEVNKRPSGVSNRFSGSKSGNTASLTISGLQAEDEADYYCSSFTSGLPWVVFGGGTKLTVLGQPKAAPSVTLFPPSSEELQANKATLVCLISDFYPGAVTVAWKADSSPVKAGVETTTPSKQSNNKYAASSYLSLTPEQWKSHRSYSCQVTHEGSTVEKTVAPTECS
- Fold wrt WT [5]: 28 fold
- EC50 [1]: 9.8 nM

B4: Variant 32478: HA PD-1:WT PD-L1 masked aCD40 Mab, uncleavable (antibody, human IgG1, kappa)
heavy: not shown
light: AFTVTVPKDLYVVEYGSNMTIECKFPVEKQLDLAALIVYWEMEDKNIIQFVHGEEDLKVQHSSYRQRARLLKDQLSLGNAALQITDVKLQDAGVYRCMISYGGADYKRITVKVNAEAAAKEAAAKDIQMTQSPSSVSASVGDRVTITCRASQGIYSWLAWYQQKPGKAPNLLIYTASTLQSGVPSRFSGSGSGTDFTLTISSLQPEDFATYYCQQANIFPLTFGGGTKVEIKRTVAAPSVFIFPPSDEQLKSGTASVVCLLNNFYPREAKVQWKVDNALQSGNSQESVTEQDSKDSTYSLSSTLTLSKADYEKHKVYACEVTHQGLSSPVTKSFNRGEC
notes: also called v32478
- EC50, CD40 RGA, FcgRIIB CHOK1 (sample v32478 + uPa) [6]: 4.28 µg/mL
- EC50, CD40 RGA, FcgRIIB CHOK1 (sample v32478 - uPa) [6]: 5.43 µg/mL
- Fold wrt WT (EC50), CD40 RGA, FcgRIIB CHOK1 (sample v32478 + uPa) [6]: 88.2 fold
- Fold wrt WT (EC50), CD40 RGA, FcgRIIB CHOK1 (sample v32478 - uPa) [6]: 112 fold
- EC50 [7]: 41 nM
- Fold wrt WT [8]: 67 fold
- EC50 [9]: 65 nM
- Fold wrt WT [10]: 42 fold

B5: Variant 30423: HA PD-1:WT PD-L1 masked CD3 × Her2 Fab × scFv Fc, with an uncleavable linker (bispecific antibody, human IgG1, kappa, L234A L235A)
heavy: not shown
light: AFTVTVPKDLYVVEYGSNMTIECKFPVEKQLDLAALIVYWEMEDKNIIQFVHGEEDLKVQHSSYRQRARLLKDQLSLGNAALQITDVKLQDAGVYRCMISYGGADYKRITVKVNAEAAAKEAAAKDIQMTQSPSSLSASVGDRVTMTCSASSSVSYMNWYQQKPGKAPKRWIYDSSKLASGVPARFSGSGSGTDYTLTISSLQPEDFATYYCQQWSRNPPTFGGGTKLQITRTVAAPSVFIFPPSDEQLKSGTASVVCLLNNFYPREAKVQWKVDNALQSGNSQESVTEQDSKDSTYSLSSTLTLSKADYEKHKVYACEVTHQGLSSPVTKSFNRGEC
chain: not shown
notes: also called masked, uncleavable variant
- Fold wrt v31931 [11]: > 35 fold
- TDCC potency (JIMT-1 cells, pan T cells), fold decrease vs unmasked 30421 [12]: 49000 fold
- EC50 [13]: 120 nM
- Fold wrt v31931 [14]: > 35 fold
- EC50 [15]: 77 nM
- fold reduced binding vs unmasked control (30421) [16]: > 43 fold
- EC50 [17]: > 200 nM
- Fold wrt v31929 [17]: > 570 fold
- EC50 [18]: > 100 nM
- EC50 [19]: > 200 nM
- Fold wrt v31929 [19]: > 570 fold
- Fold wrt WT [20]: 63 fold
- EC50 [21]: > 100 nM
- Fold wrt WT [22]: 100 fold
- Fold wrt WT [23]: > 43 fold

B6: Variant 30426: WT PD-1:HA PD-L1 masked CD3 × Her2 Fab × scFv Fc, with an uncleavable linker (bispecific antibody, human IgG1, kappa, L234A L235A)
heavy: not shown
light: B5 light with I37Q, Y39F, E41M, R96T, M98L, S100A, G102K
chain: not shown
- Fold wrt v31929 [17]: > 570 fold
- Fold wrt v31931 [24]: > 35 fold

B7: Variant 32497: Half-masked CD3 × Her2 Fab × scFv Fc, PD-1 KO attached to HC (bispecific antibody, human IgG1, kappa, L234A L235A)
heavy: not shown
light: DIQMTQSPSSLSASVGDRVTMTCSASSSVSYMNWYQQKPGKAPKRWIYDSSKLASGVPARFSGSGSGTDYTLTISSLQPEDFATYYCQQWSRNPPTFGGGTKLQITRTVAAPSVFIFPPSDEQLKSGTASVVCLLNNFYPREAKVQWKVDNALQSGNSQESVTEQDSKDSTYSLSSTLTLSKADYEKHKVYACEVTHQGLSSPVTKSFNRGEC
chain: not shown
notes: also called v32497; variant with a non-functional PD-1 domain appended to the heavy chain
- TDCC potency on JIMT-1 target cells, fold EC50 vs unmasked v30421 [25]: 55 fold
- EC50 [26]: 13 nM
- fold reduction in binding vs unmasked control [27]: 6 fold

B8: Variant 30421: CD3 × Her2 Fab × scFv Fc without mask (bispecific antibody, human IgG1, kappa, L234A L235A)
heavy: not shown
light: B7 light
chain: not shown
notes: also called v30421; unmasked variant
- Fold wrt v31931 [14]: > 35 fold
- EC50 [15]: 1.2 nM
- EC50 [26]: 2.1 nM
- EC50 [28]: 1.2 nM
- Fold wrt v31929 [19]: > 570 fold
- Fold wrt WT [29]: 1 fold
- EC50 [30]: 5.3 nM
- EC50 [21]: 2.3 nM
- Fold wrt WT [23]: 2.3 fold
